Measured values from patent publication US12514920B1, “Respiratory syncytial virus mRNA vaccine, and preparation method therefor and use thereof” (Hangzhou Tianlong Pharmaceutical Co., Ltd., priority 2024, dated 2026).
Where a chain is given by its changes, count along the chain named.

B1: YK-RSV-022 (protein)
chain: QNITEEFYQSTCSAVSKGYLGALRTGWYTSVITIELSNIKENKCNGTDAKVKLIKQELDKYKNAVTDLQLLMQSTPACGSGSACASGVAVSKVLHLEGEVNKIKSALLSTNKAVVSLSGCGVSVLTFKVLDLKNYIDKQLLPIVNKQSCSIPNIETVIEFQQKNNRLLEITREFSVNAGVTTPVSTYMLTNSELLSLINDMPITNDQKKLMSNNVQIVRQQSYSIMSIIKEEVLAYVVQLPLYGVIDTPCWKLHTSPLCTTNTKEGSNICLTRTDRGWYCDNAGSVSFFPQAETCKVQSNRVFCDTMNSRTLPSEVNLCNVDIFNPKYDCKIMTSKTDVSSSVITSLGAIVSCYGKTKCTASNKCRGIIKTFSNGCDYVSNKGVDTVSVGNTLYYVNKQEGQSLYVKGEPIINFYDPLVFPSSEFDASISQVNEKINQSLAFIRKSDELLHNVNAGKSTTNIMITTIIIVIIVILLSLIAVGLLLY
B2: YK-RSV-005 (protein)
chain: QNITEEFYQSTCSAVSKGYLGALRTGWYTSVITIELSNIKENKCNGTDAKVKLIKQELDKYKNAVTDLQLLMQSTPATGSGSAICSGVAVCKVLHLEGEVNKIKSALLSTNKAVVSLSNGVSVLTIKVLDLKNYIDKQLLPIVNKQSCSISPIETVIEFQQKNNRLLEITREFSVNAGVTTPVSTYMLTNSELLSLINDMPITNDQKKLMSNNVQIVRQQSYSIMCIIKEEVLAYVVQLPLYGVIDTPCWKLHTSPLCTTNTKEGSNICLTRTDRGWYCDNAGSVSFFPQAETCKVQSNRVFCDTMNSRTLPSEVNLCNVDIFNPKYDCKIMTSKTDVSSSVITSLGAIVSCYGKTKCTASNKNRGIIKTFSNGCDYVSNKGVDTVSVGNTLYCVNKQEGQSLYVKGEPIINFYDPLVFPSSEFDASISQVNEKINQSLAFIRKSDELLHNVNAGKSTTNIMITTIIIVIIVILLSLIAVGLLLY
B3: YK-RSV-017 (protein)
chain: B2 chain with S30C, T33L, C91S, L124C, I126F, S151P, P152N, C226S
B4: YK-RSV-014 (protein)
chain: B2 chain with Q9C, C91S, S151P, P152N, C226S, G407C
B5: YK-RSV-018 (protein)
chain: B2 chain with Q9C, C91S, I126F, S151P, P152N, T155I, C226S, G407C
B6: YK-RSV-031 (protein)
chain: QNITEECYQSTCSAVSKGYLGALRTGWYTSVITIELSNIKENKCNGTDAKVKLIKQELDKYKNAVTDLQLLMQSTPATGSGSAIASGVAVSKVLHLEGEVNKIKSALLSTNKAVVSLSNGVSVLTFKVLDLKNYIDKQLLPILNKQSCSIPNIETVIEFQQKNNRLLEITREFSVNAGVTTPVSTYMLTNSELLSLINDMPITNDQKKLMSNNVQIVRQQSYSIMSIIKEEVLAYVVQLPLYGVIDTPCWKLHTSPLCTTNTKEGSNICLTRTDRGWYCDNAGSVSFFPQAETCKVQSNRVFCDTMNSRTLPSEVNLCNVDIFNPKYDCKIMTSKTDVSSSVITSLGAIVSCYGKTKCTASNKNRGIIKTFSNGCDYVSNKGVDTVSVGNTLYYVNKQEGQSLCVKGEPIINFYDPLVFPSDEFDASISQVNEKINQSLAFIRKSDELLHNVNAGKSTTNIMITTIIIVIIVILLSLIAVGLLLY
B7: YK-RSV-056 (protein)
chain: B6 chain with C7F, A83C, S223C, C404Y
B8: YK-RSV-038 (protein)
chain: B6 chain with C7F, S30C, S122C, C404Y

Legend:
RSV F antibody (11A9) = experiment: Binding of epitope II of RSV F antigen mutants by flow cytometry; conditions: for RSV F antibody (11A9) Epitope II (%): binding rate, 293T cells 16 h after mRNA-LNP transfection
Description: (§1) To investigate whether the RSV F antigen mutants have pre-fusion epitopes, an RSV pre-F antibody (3C12) (specifically binding to the RSV pre-F epitope […]) and an RSV F antibody (11A9) (binding to pre-F and post-F epitopes II) were detected by flow cytometry in this example, and RSV F protein mutants in the pre-F conformation were expected to bind to the antibodies tested.
(§2) • 293T cells (purchased from ATCC cell bank); RSV pre-F antibody (3C12), epitope […] (Novoprotein, Cat. No.: DA101); RSV F antibody (11A9), epitope II (Novoprotein, Cat. No.: DA091); • experimental groups: mRNA vaccines corresponding to the expressed antigens in Example 3;
(§3) • (1) Cell transfection: 293T cells were seeded at 1.3×10^5 cells/well in a 24-well plate. The next day, mRNA-LNP samples (containing 300 ng of mRNA) were added directly to the cells, and the mixture was uniformly mixed. • (2) Cell collection: The cells were taken out of the incubator after 16 h of transfection, the medium was pipetted off, 500 μL of 0.1% BSA solution was pipetted to wash the medium remaining in the well plate, taking care not to resuspend the cells, and the 0.1% BSA solution was pipetted off. 500 μL of 0.1% BSA solution was added to each well, and the cells were pipetted and transferred to a 1.5 mL centrifuge tube. • (3) Centrifugation: The cells were harvested by centrifugation at 400 g for 5 min at 4° C. in the dark, and the supernatant was discarded. • (4) Straining: 50.6 μL of RSV fluorescent antibody diluent was added to each of the control sample and the test samples to resuspend the cells, and the samples were incubated at 4° C. for 2 h in the dark. • (5) Cleaning: After the incubation was completed, 500 μL of 0.1% BSA solution was added to each tube, the cells were harvested by centrifugation at 400 g for 5 min at 4° C. in the dark, and the supernatant was discarded. This operation was repeated three times. • (6) Resuspension of cells: 200 μL of 0.1% BSA solution was added to each sample, and the cells were carefully pipetted to prepare a cell suspension. • (7) Detection on flow cytometer: The […] of RSV F mutants to antibodies were measured using flow cytometry, with 1×10^4 cells detected in each measurement.
(§4) The RSV pre-F antibody (3C12) used in this example specifically binds to the RSV pre-F epitope Φ, and the RSV F antibody (11A9) binds to the pre-F and post-F epitopes II. Whether the pre-fusion conformations of the RSV F mutants are stable can be further determined by detecting the binding of the epitope Φ and the epitope II on the mutants to corresponding epitopes of antibodies 3C12 and 11A9, respectively, by flow cytometry.

[1] = test system: RSV pre-F antibody (3C12); experiment: Binding of epitope Φ of RSV F antigen mutants by flow cytometry; conditions: for RSV pre-F antibody (3C12) Epitope Φ (%): binding rate, 293T cells 16 h after mRNA-LNP transfection; for Φ/II (%): ratio of epitope Φ (3C12) to epitope II (11A9) binding rate
Description: as §1, §2, §3, §4

[2] = test system: RSV pre-F antibody (3C12); type: physicochemical; conditions: ELISA binding to 3C12; for Stress resistance parameter, Osmotic pressure (mM) 3000: high osmotic pressure 3000 mM; for Stress resistance parameter, Osmotic pressure (mM) 3000 / Stress resistance parameter, Osmotic pressure (mM) 10: room temperature; for Stress resistance parameter, Osmotic pressure (mM) 3000 / Stress resistance parameter, Osmotic pressure (mM) 10 / Stress resistance parameter, pH 3.5 / Stress resistance parameter, pH 10: 60 min; for Stress resistance parameter, Temperature (° C.) 50: incubation at 50° C. for 60 min; for Stress resistance parameter, Osmotic pressure (mM) 10: low osmotic pressure 10 mM; for Stress resistance parameter, pH 3.5: pH 3.5, room temperature; for Stress resistance parameter, pH 10: pH 10, room temperature; for Stress resistance parameter, Temperature (° C.) 4: storage at 4° C. for one week
Description: To investigate the stability of the RSV F antigen mutants under different pH, temperature, osmotic pressure and other conditions, the mutants were subjected to stress tests under different treatment conditions in this example.
• 293T cells (purchased from ATCC cell bank); • Primary antibody: RSV pre-F antibody (3C12), epitope Φ (purchased from Suzhou Novoprotein Scientific Co., Ltd. (hereinafter referred to as Novoprotein), Cat. No.: DA101); • Standard: RSV pre-F trimer protein (Novoprotein, Cat. No.: DRA230); • Secondary antibody: peroxidase AffiniPure goat anti-human IgG (H+L) (purchased from Yeasen Biotechnology (Shanghai) Co., Ltd. (hereinafter referred to as Yeasen), Cat. No.: N/A); • Experimental group: mRNA vaccines after screening in Example 4;
Coating: A 96-well microplate was coated with a working solution and incubated at 2 to 8° C. for 16 to 20 h.
Plate washing: Phosphate buffered saline PBST was added to each well, and the plate was washed 5 times using a plate washer and patted dry on absorbent paper.
Blocking: After a blocking solution was added, the […] were placed on a constant temperature microplate shaker and incubated at 400 rpm for 1.5 h at 37° C.
Plate washing: PBST was added to each well, and the plate was washed 5 times using a plate washer and patted dry on absorbent paper.
Primary antibody incubation: A primary antibody dilution was added to each well, and the plate was sealed with a sealing film, and then incubated at 400 rpm for 1.5 h at 37° C.
Secondary antibody incubation: A secondary antibody dilution was added to each well, and the plate was sealed with a sealing film, and then incubated at 400 rpm for 45 min at 37° C.
Color development: A chromogenic solution was added, and the plate was sealed with a sealing film, and then placed on a constant temperature microplate shaker and incubated at 400 rpm for 25 min at 37° C.
Reaction stopping: After the color development was completed, a stop buffer was added at […] to the microplate to stop the reaction.
Plate reading: Absorbance values (OD values) were read within 5 min using a multimode microplate reader, with dual wavelengths of 450 nm and 630 nm set.
In this example, stability screening of the mutants through different treatment conditions was defined as a stress test, including storage at 4° C. for one week; incubation at 50° C. for 60 min; treatment at room temperature under low osmotic pressure and high osmotic pressure conditions for 60 min; treatment at room temperature under acid and base conditions for 60 min. The binding of the mutants to the RSV pre-F antibody (3C12) recognizing the epitope Φ was detected by ELISA.

Molecule	RSV F antibody (11A9) Epitope II (%) (RSV F antibody (11A9))	RSV F antibody (11A9) Epitope II (%) binding rate (RSV F antibody (11A9); epitope II, antibody 11A9) [%]	RSV pre-F antibody (3C12) Epitope Φ (%) ([1]; flow cytometry)	RSV pre-F antibody (3C12) Epitope Φ (%) binding rate ([1]; flow cytometry, epitope Φ, antibody 3C12) [%]	Φ/II (%) [1] [%]	Stress resistance parameter, Osmotic pressure (mM) 3000 [2]	Stress resistance parameter, Temperature (° C.) 50 [2]	Stress resistance parameter, Osmotic pressure (mM) 10 [2]	Stress resistance parameter, pH 3.5 [2]	Stress resistance parameter, pH 10 [2]	Stress resistance parameter, Temperature (° C.) 4 [2]
RSVA2 (138251)-wt: wild sequence of RSV A2 F protein, full length (1 to 574 aa) [reference compound]	23.1	23.1	1.0	1.0	4.3						
B1	2.1		0.2		9.5						
B2					96.2	0.47 ± 0.08	0.44 ± 0.06	0.57 ± 0.00	0.64 ± 0.20	0.88 ± 0.14	0.55 ± 0.09
B3					96.5	0.46 ± 0.06	0.60 ± 0.04	0.59 ± 0.03	0.76 ± 0.11	0.93 ± 0.06	0.35 ± 0.07
B4	0.1		0.0		0.0						
B5	76.3		68.4		89.6						
B6	83.4		75.5		90.5						
B7					97.4	0.44 ± 0.08	0.91 ± 0.09	0.82 ± 0.07	0.64 ± 0.12	0.72 ± 0.14	0.69 ± 0.10
B8					94.8	0.55 ± 0.13	0.70 ± 0.10	0.74 ± 0.08	0.88 ± 0.17	0.82 ± 0.26	0.32 ± 0.08
